How the values were obtained:
[1] = target: T1, murine CCL3 (mouse, UniProt P10855 24-92)
T1 sequence: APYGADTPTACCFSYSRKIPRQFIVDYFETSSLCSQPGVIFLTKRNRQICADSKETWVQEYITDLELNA

[2] = target: T2, human CCL3 (human, UniProt P10147 23-92); test: SPR, R17 amine-coupled to CM5 chip
T2 construct: also called hCCL3
T2 sequence: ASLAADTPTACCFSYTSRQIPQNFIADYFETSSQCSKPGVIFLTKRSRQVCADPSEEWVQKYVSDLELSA

[3] = target: T3, murine CCL4 (mouse, UniProt P14097 24-92); test: SPR, R17 amine-coupled to CM5 chip
T3 construct: also called mCCL4
T3 sequence: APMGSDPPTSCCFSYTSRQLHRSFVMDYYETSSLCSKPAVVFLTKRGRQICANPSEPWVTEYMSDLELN

[4] = target: T4, human CCL5 (human, UniProt P13501 24-91); test: SPR, R17 amine-coupled to CM5 chip
T4 construct: also called hCCL5
T4 sequence: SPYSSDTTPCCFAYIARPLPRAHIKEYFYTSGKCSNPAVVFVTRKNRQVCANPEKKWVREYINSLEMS

[5] = target: T5, murine XCL1 (lymphotactin) (mouse, UniProt P47993 22-114); test: SPR, R17 amine-coupled to CM5 chip
T5 construct: also called mXCL1; lymphotactin (XCL1)
T5 sequence: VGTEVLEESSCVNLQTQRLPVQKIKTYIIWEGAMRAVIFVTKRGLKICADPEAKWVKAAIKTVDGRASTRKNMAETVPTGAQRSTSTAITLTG

[6] = target: T6, murine CCL2 (mouse, UniProt P10148 24-148); test: SPR, R17 on CM5 chip; t1/2
T6 construct: also called mCCL2
T6 sequence (P10148 24-148 limits assumed): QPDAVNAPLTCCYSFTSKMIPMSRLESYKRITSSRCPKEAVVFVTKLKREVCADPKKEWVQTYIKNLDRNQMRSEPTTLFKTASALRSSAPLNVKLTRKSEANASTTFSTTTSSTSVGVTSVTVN

[7] = target: T1, murine CCL3; test: SPR, R17 on CM5 chip; t1/2
[8] = target: T3, murine CCL4; test: SPR, R17 on CM5 chip; t1/2
[9] = target: T7, murine CCL5 (mouse, UniProt P30882 24-91); test: SPR, R17 on CM5 chip; t1/2
T7 construct: also called mCCL5
T7 sequence (P30882 24-91 limits assumed): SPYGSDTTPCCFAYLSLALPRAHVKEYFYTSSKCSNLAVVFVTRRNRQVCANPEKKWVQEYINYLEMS

[10] = target: T4, human CCL5; test: SPR, R17 on CM5 chip; t1/2
[11] = target: T8, murine CCL8 (mouse, UniProt Q9Z121 24-97); test: SPR, R17 on CM5 chip; t1/2
T8 construct: also called mCCL8
T8 sequence: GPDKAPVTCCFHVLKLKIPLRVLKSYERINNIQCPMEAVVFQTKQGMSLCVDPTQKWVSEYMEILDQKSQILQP

[12] = target: T9, murine CCL20 (mouse, UniProt O89093 28-97); test: SPR, R17 on CM5 chip; t1/2
T9 construct: also called mCCL20
T9 sequence: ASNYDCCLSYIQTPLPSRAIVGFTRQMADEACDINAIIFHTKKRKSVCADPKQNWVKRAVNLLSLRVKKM

[13] = target: T10, murine CCL24 (mouse, UniProt Q9JKC0 27-119); test: SPR, R17 on CM5 chip; t1/2
T10 construct: also called mCCL24
T10 sequence: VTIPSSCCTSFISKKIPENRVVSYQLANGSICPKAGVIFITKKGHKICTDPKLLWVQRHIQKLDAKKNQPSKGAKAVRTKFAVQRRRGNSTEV

[14] = target: T11, murine CCL12 (mouse, UniProt Q62401 23-104); test: SPR, R17 on CM5 chip; t1/2
T11 construct: also called mCCL12
T11 sequence: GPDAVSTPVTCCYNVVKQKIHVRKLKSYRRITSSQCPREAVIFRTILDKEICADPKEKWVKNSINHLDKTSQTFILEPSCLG

[15] = target: T5, murine XCL1 (lymphotactin); test: SPR, R17 on CM5 chip; t1/2
[16] = target: T12, CCL9 (UniProt P51670 22-122); test: SPR, R17 on CM5 chip; t1/2
T12 sequence: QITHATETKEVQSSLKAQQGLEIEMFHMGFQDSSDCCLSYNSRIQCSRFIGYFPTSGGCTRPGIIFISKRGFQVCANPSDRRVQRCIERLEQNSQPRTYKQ

[17] = target: T13, human CCL2 (human, UniProt P13500 24-99); test: SPR saturation binding (KD,eq), R17 on CM5 chip
T13 construct: also called hCCL2
T13 sequence (P13500 24-99 limits assumed): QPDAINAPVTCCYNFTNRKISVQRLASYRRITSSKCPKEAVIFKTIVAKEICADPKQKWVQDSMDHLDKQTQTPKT

[18] = target: CCL2 (species not given); test: SPR, R17 variant on CM5 chip; column KDeq (nM)
[19] = target: CCL2 (species not given); test: SPR, R17 variant on CM5 chip; column KD (nM), kinetic
[20] = target: T6, murine CCL2; test: SPR, R17 on CM5 chip; KD,kin = kd/ka from the global fit
[21] = target: T13, human CCL2; test: as above
[22] = target: T8, murine CCL8; test: as above
[23] = target: T9, murine CCL20; test: as above
[24] = target: T11, murine CCL12; test: as above
[25] = target: T12, CCL9; test: as above

B1: R17 chemokine decoy receptor of Rodent herpesvirus Peru (RHVP), wild type, C-terminal 8-His fusion (receptor)
chain: GPVGEPVASEINEASKVSSRLLTQDILFRKDRQATISLPIKLPVEDIITQTCDKITYGPLKFLDLLEKETAVLPLSTDITCPACLGRAVLVGKWECPAHVAVNESDLTVFGPNKEEHVPQFVTVQQPSDGKMQRLFFAKFLGTEESLAVLRVPGPDGHLCIQEALIHFKELSGAGVCSLWKANDSREEGLEMKQVDCLETTVLENQTCIATTLSKKIYHRLYCGERLMTGGQVSTRVLLTALGFYKRQPYTFHRVPKGMVYVHLIDSGSEDYMEYSECEEVTPGRYEDKQISYTFYTDLFQTADGEPVLASVWGTSGLKDSAYESCAFVIPTKGRRKLVPRRIMSKCYPFRLTYHPSTMTVRLDVRVEKHHGATDQGFVFLKMESGTYSEGREYYLDRVLWGEDSSTNNVLQ
notes: not shown: C-terminal 8-His tag
[1]
  Kd: 1.4 nM
[2]
  dissociation time of the complex: > 10 min
[3]
  dissociation time of the complex: > 10 min
[4]
  dissociation time of the complex: > 10 min
[5]
  dissociation time of the complex: > 10 min
[6]
  t1/2: 34.6 s
[7]
  t1/2: > 1000 s
[8]
  t1/2: > 1000 s
[9]
  t1/2: > 1000 s
[10]
  t1/2: > 1000 s
[11]
  t1/2: 6.9 s
[12]
  t1/2: 32.2 s
[13]
  t1/2: > 1000 s
[14]
  t1/2: 6.9 s
[15]
  t1/2: > 1000 s
[16]
  t1/2: 6.8 s
[17]
  Kd: 12 nM
[18]
  Kd: 10 nM
[19]
  Kd: 6.7 nM
[20]
  Kd: 6.7 nM
[21]
  Kd: 7.5 nM
[22]
  Kd: 76 nM
[23]
  Kd: 4.7 nM
[24]
  Kd: 1.1 nM
[25]
  Kd: 4.5 nM

— patent US20200164032A1 (WASHINGTON UNIVERSITY, published 2020)
